By Kd is commonly meant the equilibrium constant for the complex coming apart.

Values joined by “and” are separate entries in the source; they are usually repeats but may differ in a detail not shown here. Identical values can stand only once.

In publication PMC2171502 (The Journal of Cell Biology, 2005) one finds Kd data, which are given here for 2 molecules.

The chains are these.
B1: Vrp1p-His (full-length S. pombe verprolin Vrp1p with a COOH-terminal His-tag) (natural protein)
chain: MAPAPPPPPPAPAPAAAAPAPPLMTGDRSALLNSIQKGKKLKKATTNDRSAPVVGGGVVGERKSNTPKSFAAPPVPTGAPSLPTSSNNTQQAEERPSMPALGGLFAGGMPKLRHIGKSSASAAPPSAPAPPTPQSELRPPTSAPPRPSIPPPSPASAPPIPSKAPPIPSSLPPPAQPAAPVKSPPSAPSLPSAVPPMPPKVPPPPLSQAPVANTSSRPSSFAPPAGHAPNVTSESPKFPNRGPSIPSASVPPVPPSSYVLQQRPNRVDDHGRFHFKDDSYLPIPHPFLGVPKVYRGGSGTTVPLNLSSF
B2: GST-Myo1p-23A (GST fused to the TH2-SH3-CA domains of the S. pombe myosin-I Myo1p tail) (domain or fragment, UniProt Q9Y7Z8 965-1217, looked up)
chain: TSKSKPFPRLATGGSTAAARGPRPVVQNKPAATKPVSMPAAKSKPAPMANPVSTAQQTQNRPPAPAMQARPNTTQAAAPVTSTTTTIKQATTVSASKPAPSTVTSAASSPSNISKPSAPVANNVSKPSAVPPPPPPPPAEVEKKDLYLALYDFAGRSPNEMTIKKDEIIEIVQKEPSGWWLALKNGAEGWVPATYVTEYKGSTPQTTASSTNVAAQANNNASPAEVNNLAGSLADALRMRASAVRGSDEEEDW

One assay deals with actin monomers (UniProt P68135 1-377). In words: pull-down.
For assay [1], the target named is B1. In words: pull-down.

Regarding B1, the Kd in the assay with actin monomers was 1000 nM and 900 nM and 800 nM.

On to B2, for which the Kd in assay [1] was 4600 nM and 5600 nM.
